Experiment [1] concerns the target β-sliding processivity clamp (Escherichia coli) (UniProt P0A988).
Experiment [2] has the same target. This is another data set of the same source.
Experiment [3] has the same target. This is another data set of the same source.
The target is the same in experiment [4]. This is another data set of the same source.
For experiment [5] the target is unchanged. The source holds these as a separate data set.
For experiment [6] the target is unchanged. This is another data set of the same source.

Chain of β-sliding processivity clamp (Escherichia coli) (P0A988 whole entry): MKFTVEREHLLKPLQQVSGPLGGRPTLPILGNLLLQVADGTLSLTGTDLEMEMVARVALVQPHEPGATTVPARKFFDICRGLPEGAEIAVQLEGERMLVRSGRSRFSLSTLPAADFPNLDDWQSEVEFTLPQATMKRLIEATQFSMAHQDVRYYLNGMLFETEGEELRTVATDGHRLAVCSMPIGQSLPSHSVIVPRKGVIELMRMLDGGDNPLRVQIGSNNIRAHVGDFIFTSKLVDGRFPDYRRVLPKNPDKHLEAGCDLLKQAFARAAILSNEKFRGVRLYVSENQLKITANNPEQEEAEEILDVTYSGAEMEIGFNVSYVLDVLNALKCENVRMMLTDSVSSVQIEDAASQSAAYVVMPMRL
Chain of pol V Mut WT (UmuD’2C-RecA-ATP/ATPγS) (P04152 whole entry): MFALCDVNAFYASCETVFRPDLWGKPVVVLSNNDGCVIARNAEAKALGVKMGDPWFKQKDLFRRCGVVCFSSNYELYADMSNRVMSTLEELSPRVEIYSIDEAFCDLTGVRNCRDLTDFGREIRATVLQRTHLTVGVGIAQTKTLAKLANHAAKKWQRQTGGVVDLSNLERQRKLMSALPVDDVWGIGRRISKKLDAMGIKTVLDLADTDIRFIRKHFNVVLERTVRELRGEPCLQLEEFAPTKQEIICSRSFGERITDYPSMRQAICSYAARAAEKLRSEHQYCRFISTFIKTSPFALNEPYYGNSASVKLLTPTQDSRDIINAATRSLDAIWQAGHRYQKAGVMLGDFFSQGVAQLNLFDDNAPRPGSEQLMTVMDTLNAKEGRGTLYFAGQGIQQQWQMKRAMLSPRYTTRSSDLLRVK
Chain of pol V Mut WT (UmuD’2C-RecA-ATP/ATPγS) (P0AG11 25-139): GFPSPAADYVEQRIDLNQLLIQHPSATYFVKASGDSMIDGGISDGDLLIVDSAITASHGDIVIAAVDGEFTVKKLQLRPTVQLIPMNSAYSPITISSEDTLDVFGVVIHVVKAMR
Chain of pol V Mut WT (UmuD’2C-RecA-ATP/ATPγS) (P0A7G6 whole entry): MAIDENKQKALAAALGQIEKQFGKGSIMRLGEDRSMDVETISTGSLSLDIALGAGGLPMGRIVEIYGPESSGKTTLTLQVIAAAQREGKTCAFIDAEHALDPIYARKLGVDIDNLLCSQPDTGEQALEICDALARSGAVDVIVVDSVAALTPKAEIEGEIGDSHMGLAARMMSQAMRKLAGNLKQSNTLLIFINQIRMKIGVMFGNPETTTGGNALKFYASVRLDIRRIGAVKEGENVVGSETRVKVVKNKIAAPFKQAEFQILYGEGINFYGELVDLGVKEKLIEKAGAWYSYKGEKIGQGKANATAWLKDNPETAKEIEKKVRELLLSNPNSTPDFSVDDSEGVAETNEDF

“pol V Mut E38K/∆C17 (UmuD’2C-RecA E38K/∆C17-ATP/ATPγS) (from UniProt P04152 1-422; P0AG11 25-139; P0A7G6 1-353) (complex)”: the fold increase of DNA elongation rate by β on undamaged DNA, pol V Mut E38K/ΔC17-ATP in experiment [1] came out at 7 fold. The same substance gave a percent of primer extended (% PE) on undamaged circular p/t DNA by pol V Mut E38K/ΔC17-ATPγS with β-clamp and γ-complex (γ-complex stays on β with ATPγS) in experiment [2] of 42%. The substance also registered a percent of primer extended (% PE) on undamaged circular p/t DNA by pol V Mut E38K/ΔC17-ATP with β-clamp and γ-complex, 15-120 min (10% at 120 min without β) in experiment [3] of 77%.

Consider “pol V Mut WT (UmuD’2C-RecA-ATP/ATPγS) (from UniProt P04152 1-422; P0AG11 25-139; P0A7G6 1-353) (complex)”, for which, in experiment [1], the fold increase of DNA elongation rate by β on undamaged DNA, pol V Mut WT-ATP worked out at 5 fold. Moreover, in experiment [4], the percent of primer extended (% PE) on undamaged circular p/t DNA by pol V Mut WT-ATPγS with β-clamp and γ-complex, 15-120 min (~5% at 60 min without β) was over 40%. The percent of primer extended (% PE) on undamaged circular p/t DNA by pol V Mut WT-ATP with β-clamp and γ-complex, 15-120 min (about 1% without β) in experiment [5] is 5%. This substance also displayed a translesion synthesis past an abasic site 3 nt from the primer end, % PE, pol V Mut WT with dATP, ATPγS and β/γ, up to 120 min in experiment [6] of 35%.

Source of the values: paper PMC8147279.
